Data as given in IntAct's records for PubMed 21803990.

B1: ATP-dependent protease ATPase subunit HslU (Escherichia coli (strain K12)), P0A6H5 (parent)
chain: MSEMTPREIVSELDKHIIGQDNAKRSVAIALRNRWRRMQLNEELRHEVTPKNILMIGPTGVGKTEIARRLAKLANAPFIKVEATKFTEVGYVGKEVDSIIRDLTDAAVKMVRVQAIEKNRYRAEELAEERILDVLIPPAKNNWGQTEQQQEPSAARQAFRKKLREGQLDDKEIEIDLAAAPMGVEIMAPPGMEEMTSQLQSMFQNLGGQKQKARKLKIKDAMKLLIEEEAAKLVNPEELKQDAIDAVEQHGIVFIDEIDKICKRGESSGPDVSREGVQRDLLPLVEGCTVSTKHGMVKTDHILFIASGAFQIAKPSDLIPELQGRLPIRVELQALTTSDFERILTEPNASITVQYKALMATEGVNIEFTDSGIKRIAEAAWQVNESTENIGARRLHTVLERLMEEISYDASDLSGQNITIDADYVSKHLDALVADEDLSRFIL
partner: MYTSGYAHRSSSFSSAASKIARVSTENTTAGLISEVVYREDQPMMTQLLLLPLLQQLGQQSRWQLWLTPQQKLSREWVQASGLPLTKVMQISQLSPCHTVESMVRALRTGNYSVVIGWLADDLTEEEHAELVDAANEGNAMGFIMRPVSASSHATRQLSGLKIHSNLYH

Variants of: B1
Conditions: with sula_ecoli sulA

Row | Variant | effect of a mutation on the interaction
1 | Y408A | increasing interaction
2 | Y91F | increasing interaction
3 | E266Q | increasing interaction

Variants of: B1
Conditions: with sula_ecoli sulA
Remark: another data set of the same source

Row | Variant | effect of a mutation on the interaction
4 | G90D | increasing interaction
